Data as given in patent US11015206B2, “Compositions and methods comprising sequences having hydroxyphenylpyruvate dioxygenase (HPPD) activity” (PIONEER HI-BRED INTERNATIONAL, INC., priority 2014, dated 2021).

Key:
Assay type in all cases: biochemical, Z. mays
[1] = tested on: 4-hydroxyphenylpyruvate dioxygenase (HPPD); assay: Insensitivity parameter (ON × OFF) and trait fitness (ON × OFF × kcat/KM or × kcat); set-up: key to ON × OFF / Insensitivity, mesotrione, ON × OFF / Insensitivity, tembotrione, ON × OFF / Insensitivity, topramezone, ON × OFF / Insensitivity, sulcotrione, ON × OFF / Insensitivity, isoxaflutole (DKN), ON × OFF: insensitivity = ON rate ratio × OFF rate ratio (surrogate for KD)
Procedure, shortened: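 Trait fitness combines catalysis and insensitivity as kcat/KM × ON rate ratio × OFF rate ratio. The insensitivity parameter is the product of ON and OFF rate ratios, used in place of KD because the ON rate ratio is inverse.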

[2] = tested on: 4-hydroxyphenylpyruvate dioxygenase (HPPD); assay: ON rate ratio: HPPD reaction rate with vs without inhibitor in the 70 to 90 second interval; conditions: Table 7; tembotrione; combinatorial variants
Procedure, shortened: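 Indicator of inhibitor on-rate: reaction velocity in the 70 to 90 second window with 4 μM inhibitor divided by that without. Reactions contained 100 μM HPP and 60 or 120 nM HPPD; slower binding gives a larger ratio.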

[3] = tested on: 4-hydroxyphenylpyruvate dioxygenase (HPPD); assay: OFF rate ratio: release of inhibitor from pre-formed enzyme-inhibitor complex; conditions: Table 7; tembotrione; combinatorial variants
Procedure, shortened: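 Inhibitor release from pre-formed complex (enzyme 7.2 μM, inhibitor 8 μM, 1 h RT) tracked as accelerating HPPD activity at 320 nm over 12 min, coupled via 50 nM HGD with 100 μM HPP at pH 7. OFF rate ratio: steady-state velocity relative to uninhibited initial velocity.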

[4] = tested on: 4-hydroxyphenylpyruvate dioxygenase (HPPD); assay: Estimate of kcat from initial rate at saturating hydroxyphenylpyruvate without inhibitor (ON rate ratio assay)
Procedure, shortened: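 kcat was estimated from the initial reaction rate with known enzyme level (60 or 120 nM HPPD). Hydroxyphenylpyruvate was at a saturating 100 μM, with no inhibitor present.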

[5] = Table 7, tembotrione, combinatorial variants
[6] = Table 7, combinatorial variants

Row | Molecule | ON × OFF ([1]; Megatable 3, shuffled variants) | ON × OFF [1, 5] | ON rate ratio [2] | OFF rate ratio [3] | ON × OFF × kcat ([1]; Megatable 3, shuffled variants) | ON × OFF × kcat [1, 5] | kcat ([4]; Megatable 3, shuffled variants) [s⁻¹] | kcat [4, 6] [s⁻¹]
1 | P056028-D-05 (protein, Zea mays variant form created by artificial means.) MGPTPTATAAGAAVAAASAAEQAAFRLVGHRNFVRFNPRSDRFQTLAFHHVELWCADAASAAGRFSFALGVPLAARSDLSTGNSAHASLLLRSGSLSLLFTAPYAHGADAATAALPSFSAAAARRFAADHGLAVRAVALRVADAEDAFRASVAAGARPAFGPVDLGRGFRLAEVELYGDVVLRYVSYPDGAAGEPFLPGFEGVASSGAADYGLSRFDHIVGNVPELAPAAAYMAGFTGFHEFAEFTTEDVGTTESGLNSMALANNSENVLLPLNEPVHGTKRRSQIQTFLDHHGGPGVQHIALASDDVLRTLREMRARSAMGGFEFLPPPLSDYYDGVRKCAGDVLTEAQINECQRLGVMVDRDDEGVLLQIFTKPVGDRPTFFLEIIQRIGCMEKDEKGQEYQKGGCGGFGKGNFSQLFKSIEDYEKSLEAKQAAAAATAQGS | 0.371 | 0.371 | 0.730 | 0.508 | 4.66 | 4.66 | 0.21 | 0.21
2 | P056028-D-04 (protein, Zea mays variant form created by artificial means.) MGPTPTATAAGAAVAAASAAEQAAFRLVGHRNFVRFNPRSDRFQTLAFHHVELWCADAASAAGRFSFALGVPLAARSDLSTGNSAHASLLLRSGSLSLLFTAPYAHGADAATAALPSFSAAAARRFAADHGLAVRAVALRVADAEDAFRASVAAGARPAFGPVDLGRGFRLAEVELYGDVVMRYVSYPDGAAGEPFLPGFEGVASPGAADLGLNRFDHIVGNVPELAPAAAYMAGFTGFHEFAEFTTEDVGTTESGLNSMALANNSENVLLPLNEPVHGTKRRSQIQTFLDHHGGPGVQHIALASDDVLRTLREMRARSAMGGFEFLPPPLSDYYDGVRRCAGDVLTEAQINECQELGVMVDRDDEGVLLQIFTKPVGDRPTFFLEIIQRIGCMEKDEKGQEYQKGGCGGFGKGNFSQLFKSIEDYEKSLEAKQAAAAATAQGS | 0.137 | 0.137 | 0.696 | 0.197 | 1.71 | 1.71 | 0.207 | 0.207
3 | P056028-D-02 (protein, Zea mays variant form created by artificial means.) MGPTPTATAAGAAVAAASAAEQAAFRLVGHRNFVRFNPRSDRFQTLAFHHVELWCADAASAAGRFSFALGVPLAARSDLSTGNSAHASLLLRSGSLSLLFTAPYAHGADAATAALPSFSAAAARRFAADHGLAVRAVALRVADAEDAFRASVAAGARPAFGPVDLGRGFRLAEVELYGDVVLRYVSYPDGGAGEPFLPGFEGVASPGAADYGLSRFDHIVGNVPELAPAAAYMAGFTGFHEFAEFTTEDVGTTESGLNSMALANNSENVLLPLNEPVHGTKRRSQIQTFLDHHGGPGVQHIALASDDVLRTLREMRARSAMGGFEFLPPPLSDYYDGVRKCAGDVLTEAQINECQELGVMVDRDDEGVLLQIFTKPVGDRPTFFLEIIQRIGCMEKDEKGQEYQKGGCGGFGKGNFGQLFKSIEDYEKSLEAKQAAAAATAQGS | 0.218 | 0.218 | 0.730 | 0.299 | 5.31 | 5.31 | 0.405 | 0.405

The next lines start with results.

Row | ON × OFF ([1]; Megatable 3, shuffled variants) | ON × OFF [1, 5] | ON rate ratio [2] | OFF rate ratio [3] | Molecule | ON × OFF × kcat ([1]; Megatable 3, shuffled variants) | ON × OFF × kcat [1, 5] | kcat ([4]; Megatable 3, shuffled variants) [s⁻¹] | kcat [4, 6] [s⁻¹]
4 | 0.188 | 0.188 | 0.719 | 0.261 | P056028-D-11 (protein, Zea mays variant form created by artificial means.) MGPTPTATAAGAAVAAASAAEQAAFRLVGHRNFVRFNPRSDRFQTLAFHHVELWCADAASAAGRFSFALGVPLAARSDLSTGNSAHASLLLRSGSLSLLFTAPYAHGADAATAALPSFSAAAARRFAADHGLAVRAVALRVTDAEDAFRASVAAGARPAFGPVDLGRGFRLAEVELYGDVVLRYVSYPDGGAGEPFLPGFEGVASPGAADYGLSRFDHIVGNVPELAPAAAYMAGFTGFHEFAEFTTEDVGTTESGLNSMALANNSENVLLPLNEPVHGTKRRSQIQTFLDHHGGPGVQHIALASDDVLRTLREMRARSAMGGFEFLPPPLSDYYDGVRKCAGDVLTEAQINECQELGVMVDRDDEGVLLQIFTKPVGDRPTFFLEIIQRIGCMEKDEKGQEYQKGGCGGFGKGNFGQLFKSIEDYEKSLEAKQAAAAATAQGS | 3.21 | 3.21 | 0.285 | 0.285
5 | 0.310 | 0.310 | 0.731 | 0.424 | P056028-D-06 (protein, Zea mays variant form created by artificial means.) MGPTPTATAAGAAVAAASAAEQAAFRLVGHRNFVRFNPRSDRFQTLAFHHVELWCADAASAAGRFSFALGVPLAARSDLSTGNSAHASLLLRSGSLSLLFTAPYAHGADAATAALPSFSAAAARRFAADHGLAVRAVALRVADAEDAFRASVAAGARPAFGPVDLGRGFRLAEVELYGDVVMRYVSYPDGAAGEPFLPGFEGVASQGAADLGLNRFDHIVGNVPELAPAAAYMAGFTGFHEFAEFTTEDVGTTESGLNSMALANNSENVLLPLNEPVHGTKRRSQIQTFLDHHGGPGVQHIALASDDVLRTLREMRARSAMGGFEFLPPPLSDYYDGVRRCAGDVLTEAQINECQELGVMVDRDDEGVLLQIFTKPVGDRPTFFLELIQRIGCMEKDEKGQEYQKGGCGGFGKGNFSQLFKSIEDYEKSLEAKQAAAAATAQGS | 3.07 | 3.07 | 0.165 | 0.165
6 | 0.286 | 0.286 | 0.775 | 0.370 | P056028-D-07 (protein, Zea mays variant form created by artificial means.) MGPTPTATAAGAAVAAASAAEQAAFRLVGHRNFVRFNPRSDRFQTLAFHHVELWCADAASAAGRFSFALGVPLAARSDLSTGNSAHASLLLRSGSLSLLFTAPYAHGADAATAALPSFSAAAARRFAADHGLAVRAVALRVADAEDAFRASVAAGARPAFGPVDLGRGFRLAEVELYGDVVLRYVSYPDGAAGEPFLPGFEGVASQGAADYGLSRFDHIVGNVPELAPAAAYMAGFTGFHEFAEFTTEDVGTTESGLNSMALANNSENVLLPLNEPVHGTKRRSQIQTFLDHHGGPGVQHIALASDDVLRTLREMRARSAMGGFEFLPPPLSDYYDGVRKCAGDVLTEAQINECQELGVMVDRDDEGVLLQIFTKPVGDRPTFFIEIIQRIGCMEKDEKGQEYQKGGCGGFGKGNFGQLFKSIEDYEKSLEAKQAAAAATAQGS | 2.60 | 2.60 | 0.152 | 0.152
